{
  "source": "patent US6428997",
  "key": {"[1]": {"tested_on": "T1, leucyl oligopeptide of SEQ ID NO: 2", "T1 sequence": "LFPTEPS"}, "[2]": {"tested_on": "T2, methionyl oligopeptide of SEQ ID NO: 1 (Met-Phe-Pro-Thr-Glu-Pro-Ser)", "T2 sequence": "MFPTEPS"}, "[3]": {"target": "methionyl human growth hormone (UniProt P01241)", "sequence (P01241 other isoform, or with tags, fused parts or gaps)": "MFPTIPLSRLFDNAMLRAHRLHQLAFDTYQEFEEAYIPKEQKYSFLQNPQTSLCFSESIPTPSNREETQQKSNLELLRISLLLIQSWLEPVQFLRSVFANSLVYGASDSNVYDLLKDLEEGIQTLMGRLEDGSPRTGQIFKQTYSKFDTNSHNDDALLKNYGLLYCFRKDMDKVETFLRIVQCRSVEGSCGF"}},
  "data": [
    {"substance": "aminopeptidase from Bacillus licheniformis (purified from Bacillus licheniformis ATCC 12759)", "values": [
      {"measurement": "Kcat/Km", "setting": "[1]", "result": 1630, "unit": "mM⁻¹ s⁻¹"},
      {"measurement": "Km", "setting": "[1]", "result": 0.172, "unit": "mM"},
      {"measurement": "kcat", "setting": "[1]", "result": 276, "unit": "s⁻¹"},
      {"measurement": "Kcat/Km", "setting": "[2]", "result": 56.1, "unit": "mM⁻¹ s⁻¹"},
      {"measurement": "Km", "setting": "[2]", "result": 0.387, "unit": "mM"},
      {"measurement": "kcat", "setting": "[2]", "result": 21.1, "unit": "s⁻¹"},
      {"measurement": "removal of N-terminal methionine (N-terminal sequencing of the recovered HGH)", "setting": "[3]", "result": "remove N-terminal methionine of methionyl HGH completely"},
      {"measurement": "removal of N-terminal methionine, large scale (N-terminal sequencing of the recovered HGH)", "setting": "[3]", "result": "HGH produced by the above process had phenylalanine at the N-terminus due to methionine removal"}
    ]}
  ]
}
